T1: α-bungarotoxin (UniProt P60615 22-95)
T1 sequence: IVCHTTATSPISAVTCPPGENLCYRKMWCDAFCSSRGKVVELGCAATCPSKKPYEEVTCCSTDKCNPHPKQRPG

B1: Hα1-210 fused to thioredoxin (Trx-Hα1-210) (receptor)
chain: SEHETRLVAKLFKDYSSVVRPVEDHRQVVEVTAGLQLIQLINVDEVNQIVTTNVRLKQGDMVDLPRPSCVTLGVPLFSHLQDEQWVDYNLKWNPDDYGGVKKIHIPSEKIWRPDLVLYNNADGDFAIVKFTKVLLQYTGHITWTPPAIFKSYCEIIVTHFPFDEQNCSMKLGTWTYDGSVVAINPESDQPDLSNFMESGEWVIKESRGWKHSVTYSCCPDTPYLDITYHFVMQRL
notes: Solubilised from inclusion bodies in 9 M urea and dialysed; also called Trx-H1α-210; 'more native' fragment; not shown: thioredoxin (Trx) encoded by the pThioHis-A vector (Invitrogen); the vector's thioredoxin may
B2: Hα1-205 expressed with no fusion partner (receptor)
chain: SEHETRLVAKLFKDYSSVVRPVEDHRQVVEVTAGLQLIQLINVDEVNQIVTTNVRLKQGDMVDLPRPSCVTLGVPLFSHLQDEQWVDYNLKWNPDDYGGVKKIHIPSEKIWRPDLVLYNNADGDFAIVKFTKVLLQYTGHITWTPPAIFKSYCEIIVTHFPFDEQNCSMKLGTWTYDGSVVAINPESDQPDLSNFMESGEWVIKESRGWKHSVTYSCCPDTPYLDITYHF
notes: The 5' primer adds an initiation codon (and a Gly codon) before residue 1; also called 'less native' fragment

How the values were obtained:
[1] = target: T1, α-bungarotoxin; test: blot overlay with 125I-α-BTX, 20 µg fragment
[2] = target: mAb 198; test: competition ELISA: fragment preincubated with mAb 198, binding of mAb 198 to coated Torpedo AChR read
Experimental: Microtiter plates were coated with Torpedo AChR (1 μg/ml) in PBS and incubated overnight at 4° C.

Binder	binding result [1]	IC50 [2]
B1	binds	300 nM
B2	–	3300 nM
